According to paper PMC11230452 (bioRxiv, 2024):
Where a chain is given by its changes, count along the chain named. Numbers in names are those of the source.

Molecular target: the molecule itself
Assay: cryo-EM structure

B1: K2P13.1EM (human K2P13.1 (THIK-1) residues 1-350, N59Q/N65Q) (domain or fragment, UniProt Q9HB14 1-350, looked up)
chain: MAGRGFSWGPGHLNEDNARFLLLAALIVLYLLGGAAVFSALELAHERQAKQRWEERLAQFSRGHQLSRDELRGFLRHYEEATRAGIRVDNVRPRWDFTGAFYFVGTVVSTIGFGMTTPATVGGKIFLIFYGLVGCSSTILFFNLFLERLITIIAYIMKSCHQRQLRRRGALPQESLKDAGQCEVDSLAGWKPSVYYVMLILCTASILISCCASAMYTPIEGWSYFDSLYFCFVAFSTIGFGDLVSSQNAHYESQGLYRFANFVFILMGVCCIYSLFNVISILIKQSLNWILRKMDSGCCPQCQRGLLRSRRNVVMPGSVRNRCNISIETDGVAESDTDGRRLSGEMISMK
stoichiometry N: 2

B2: K2P13.1EM S136P/Y273A (domain or fragment, human, UniProt Q9HB14 1-350, looked up)
chain: B1 chain with S136P, Y273A
binding result: binds
